# US20200140551A1 (GlaxoSmithKline, published 2020)
# T1: human ICOS on human T cells (human, UniProt Q9Y6W8 21-167)
# T1 construct: endogenous receptor on primary cells; also called ICOS on CD4+ and CD8+ T cells of healthy human donors
# T1 sequence: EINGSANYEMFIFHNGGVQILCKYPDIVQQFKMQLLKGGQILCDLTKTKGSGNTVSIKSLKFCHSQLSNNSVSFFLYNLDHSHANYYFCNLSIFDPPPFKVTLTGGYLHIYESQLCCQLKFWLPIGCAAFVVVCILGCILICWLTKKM
# T2: human FcγR IIb (human, UniProt P31994 46-217, limits assumed)
# T2 sequence (looked up): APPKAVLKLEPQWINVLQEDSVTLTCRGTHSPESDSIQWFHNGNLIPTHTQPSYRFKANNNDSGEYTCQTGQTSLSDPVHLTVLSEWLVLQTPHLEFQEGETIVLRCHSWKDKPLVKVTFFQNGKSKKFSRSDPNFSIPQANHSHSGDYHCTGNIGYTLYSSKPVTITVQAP
# T3: human FcγR IIa R131 (human, UniProt P12318 36-218, limits assumed)
# T3 sequence (looked up): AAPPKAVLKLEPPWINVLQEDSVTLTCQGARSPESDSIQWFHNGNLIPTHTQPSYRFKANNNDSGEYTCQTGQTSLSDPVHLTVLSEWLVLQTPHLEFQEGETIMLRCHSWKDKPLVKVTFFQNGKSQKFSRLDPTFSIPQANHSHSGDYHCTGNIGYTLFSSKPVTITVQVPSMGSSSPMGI
# T4: human ICOS (human, UniProt Q9Y6W8 21-140, limits assumed)
# T4 sequence: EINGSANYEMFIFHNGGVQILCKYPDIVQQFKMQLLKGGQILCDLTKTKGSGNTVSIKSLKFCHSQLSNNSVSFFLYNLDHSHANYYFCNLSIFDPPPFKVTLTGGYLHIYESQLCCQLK
# What was measured:
# [1] = biological target: T1, human ICOS on human T cells; test: flow cytometry, activated human CD8 T cells, FITC MFI, median of donors
# Method: (§1) Either naive and/or activated CD3+ T cells were re-suspended in PBS with 0.1% BSA (FACS Buffer) containing Human FcR Blocking Solution at 2×10⁶ cells/mL (5 μl FcR Blocking Solution+[…] FACS Buffer per 1 mL). At a concentration of 2×10⁵ cells/well, 100 μl cells were placed into 2 mL 96 well Assay Blocks and incubated at room temperature for 15 minutes. During the incubation, a titration of the binding antibodies, anti-ICOS (H2L5 hIgG4PE) or IgG4 Isotype Control antibody was prepared as a 2× concentration. […] Following the binding incubation, cells were washed twice in 1 mL of FACS buffer, centrifuging at 400×g for 5 minutes at room temperature.
# (§2) Data acquisition and compensation were performed on BD FACS instruments, LSR Fortessa X-20 or FACS Canto II using BD Diva (ver. 8.0) software. Data analysis employed Flow Jo software (ver.10.0.8r1). Results are reported as both MFI (Median Fluorescence Intensity) and Percent of cells positive for human IgG kappa light chain FITC staining out of the total live cells or appropriate parent population. EC50s were determined using Graphpad Prism 5 software (ver. 5.04) with non-linear regression of transformed data (X=(log(X)) using a variable slope with 4 parameters (log(Agonist) vs. response—Variable slope).
# [2] = biological target: T1, human ICOS on human T cells; test: flow cytometry, activated human CD4 T cells, percent FITC positive, donor 1149M52
# Method: (§3) Binding of H2L5 hIgG4PE was assessed in both naive and activated CD3+ T cells.
# as §1, §2
# [3] = biological target: T2, human FcγR IIb; test: affinity to human Fcγ receptors; method not described
# [4] = biological target: T5, human FcγR I (human, UniProt P12314 16-288, limits assumed); test: as above
# T5 construct: also called CD64
# [5] = biological target: T3, human FcγR IIa R131; test: as above
# [6] = biological target: T1, human ICOS on human T cells; test: flow cytometry, activated human CD8 T cells, percent FITC positive, mean of donors
# Method: as §1, §2
# [7] = biological target: T1, human ICOS on human T cells; test: flow cytometry, activated human CD4 T cells, percent FITC positive, donor 1173F42
# Method: as §3, §1, §2
# [8] = biological target: T1, human ICOS on human T cells; test: flow cytometry, activated human CD8 T cells, FITC MFI, mean of donors
# Method: as §3, §1, §2
# [9] = biological target: T1, human ICOS on human T cells; test: flow cytometry, activated human CD8 T cells, percent FITC positive, median of donors
# Method: as §3, §1, §2
# [10] = biological target: T1, human ICOS on human T cells; test: flow cytometry, activated human CD4 T cells, percent FITC positive, donor 1141F45
# Method: as §1, §2
# [11] = biological target: T1, human ICOS on human T cells; test: flow cytometry, activated human CD4 T cells, percent FITC positive, median of donors
# Method: as §3, §1, §2
# [12] = biological target: T4, human ICOS; test: MSD competition assay: inhibition of ICOS-L binding to ICOS by titrated antibody, bar chart in raw luminescence units
# [13] = biological target: T1, human ICOS on human T cells; test: flow cytometry, activated human CD8 T cells, FITC MFI, donor 1124F36
# Method: as §3, §1, §2
# [14] = biological target: T1, human ICOS on human T cells; test: flow cytometry, activated human CD8 T cells, FITC MFI, donor 1173F42
# Method: as §1, §2
# [15] = biological target: T1, human ICOS on human T cells; test: flow cytometry, activated human CD8 T cells, percent FITC positive, donor 1149M52
# Method: as §3, §1, §2
# [16] = biological target: T1, human ICOS on human T cells; test: flow cytometry, activated human CD4 T cells, percent FITC positive, donor 1123F59
# Method: as §3, §1, §2
# [17] = biological target: T1, human ICOS on human T cells; test: flow cytometry, activated human CD4 T cells, FITC MFI, mean of donors
# Method: as §1, §2
# [18] = biological target: T1, human ICOS on human T cells; test: flow cytometry, activated human CD8 T cells, FITC MFI, donor 1149M52
# Method: as §3, §1, §2
# T5 sequence (P12314 16-288 limits assumed): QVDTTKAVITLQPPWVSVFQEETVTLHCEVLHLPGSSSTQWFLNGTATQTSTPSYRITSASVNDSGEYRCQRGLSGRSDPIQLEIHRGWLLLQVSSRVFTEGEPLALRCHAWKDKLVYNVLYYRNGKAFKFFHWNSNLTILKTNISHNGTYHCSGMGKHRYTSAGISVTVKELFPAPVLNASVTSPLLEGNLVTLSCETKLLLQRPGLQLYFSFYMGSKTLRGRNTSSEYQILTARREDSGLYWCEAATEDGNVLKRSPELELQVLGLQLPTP
binder,measurement,setting,value
"H2L5 hIgG4PE (antibody, also called 422 H2L5 hIgG4PE; H2L5 IgG4PE; copies: 2 + 2) heavy: not shown light: EIVLTQSPATLSLSPGERATLSCSASSSVSYMHWYQQKPGQAPRLLIYDTSKLASGIPARFSGSGSGTDYTLTISSLEPEDFAVYYCFQGSGYPYTFGQGTKLEIKRTVAAPSVFIFPPSDEQLKSGTASVVCLLNNFYPREAKVQWKVDNALQSGNSQESVTEQDSKDSTYSLSSTLTLSKADYEKHKVYACEVTHQGLSSPVTKSFNRGEC",EC50,[1],0.652 µg/mL
same,EC50,[2],0.882 µg/mL
same,Kd,[3],1470 nM
same,Kd,[4],645 nM
same,Kd,[5],2500 nM
same,EC50,[6],0.692 µg/mL
same,EC50,[7],0.612 µg/mL
same,EC50,[8],0.525 µg/mL
same,EC50,[9],0.583 µg/mL
same,EC50,[10],0.965 µg/mL
same,EC50,[11],0.834 µg/mL
same,IC50 (read off the curve),[12],~2 µg/mL
same,EC50,[13],0.564 µg/mL
same,EC50,[14],0.27 µg/mL
same,EC50,[15],0.547 µg/mL
same,EC50,[16],0.853 µg/mL
same,EC50,[17],0.977 µg/mL
same,EC50,[18],0.74 µg/mL
